From PMC9482650, “Quantitative fragmentomics allow affinity mapping of interactomes” (Nature Communications, 2022)

Assays:
Test in all cases: holdup assay
Set-up in all cases: key: below the threshold = too weak to quantify, mostly under pKd 3.1 to 4
Details in all cases: plain residues with an end cap or a label only (N-terminal biotin on a linker: ado-ado)
APBA2_1, Q99767 = target: T1, APBA2_1, Q99767
T1 sequence (Q99767 563-664, limits assumed, looked up): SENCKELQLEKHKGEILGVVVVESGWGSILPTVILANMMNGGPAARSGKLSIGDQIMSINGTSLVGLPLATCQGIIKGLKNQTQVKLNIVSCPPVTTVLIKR

ARHGEF12, Q9NZN5-2 = target: ARHGEF12, Q9NZN5-2
CASK, O14936 = target: CASK, O14936
DLG3_1, Q92796 = target: T2, DLG3_1, Q92796
T2 sequence (Q92796 125-227, limits assumed, looked up): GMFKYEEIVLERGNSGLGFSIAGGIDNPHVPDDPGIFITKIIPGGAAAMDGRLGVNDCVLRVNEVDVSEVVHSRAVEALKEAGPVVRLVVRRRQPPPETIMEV

DLG3_2, Q92796 = target: T3, DLG3_2, Q92796
T3 sequence (Q92796 221-321, limits assumed, looked up): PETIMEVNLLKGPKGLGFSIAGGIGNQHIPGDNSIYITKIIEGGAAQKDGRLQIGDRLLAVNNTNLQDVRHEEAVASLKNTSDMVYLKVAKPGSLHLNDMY

DLG5_1, Q8TDM6 = target: DLG5_1, Q8TDM6
FRMPD3, Q5JV73 = target: FRMPD3, Q5JV73
GOPC, Q9HD26 = target: GOPC, Q9HD26
GRASP, Q7Z6J2 = target: GRASP, Q7Z6J2
GRID2IP_1, A4D2P6 = target: GRID2IP_1, A4D2P6
IL16_4, Q14005 = target: IL16_4, Q14005
LIMK2, P53671 = target: LIMK2, P53671
MAGI1_2, Q96QZ7 = target: MAGI1_2, Q96QZ7
MAST2, Q6P0Q8 = target: MAST2, Q6P0Q8
MPDZ_10, O75970 = target: T4, MPDZ_10, O75970
T4 sequence (O75970 1624-1722, limits assumed, looked up): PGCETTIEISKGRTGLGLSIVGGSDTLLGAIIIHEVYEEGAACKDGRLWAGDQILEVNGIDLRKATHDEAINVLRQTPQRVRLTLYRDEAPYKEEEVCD

NHERF3_1, Q5T2W1 = target: T5, NHERF3_1, Q5T2W1
T5 sequence (Q5T2W1 4-100, limits assumed, looked up): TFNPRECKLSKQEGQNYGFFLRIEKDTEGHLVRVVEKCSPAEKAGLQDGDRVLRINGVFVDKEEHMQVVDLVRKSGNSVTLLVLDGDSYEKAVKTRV

NHERF4_1, Q86UT5-2 = target: NHERF4_1, Q86UT5-2
PDZRN4_1, Q6ZMN7 = target: PDZRN4_1, Q6ZMN7
RHPN1, Q8TCX5 = target: T6, RHPN1, Q8TCX5
T6 sequence (Q8TCX5 508-602, limits assumed, looked up): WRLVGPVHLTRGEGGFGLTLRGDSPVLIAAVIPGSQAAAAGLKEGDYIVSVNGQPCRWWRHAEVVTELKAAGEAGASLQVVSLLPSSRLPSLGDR

SCRIB_1, Q14160 = target: SCRIB_1, Q14160
SHANK1, Q9Y566 = target: T7, SHANK1, Q9Y566
T7 sequence (Q9Y566 658-767, limits assumed, looked up): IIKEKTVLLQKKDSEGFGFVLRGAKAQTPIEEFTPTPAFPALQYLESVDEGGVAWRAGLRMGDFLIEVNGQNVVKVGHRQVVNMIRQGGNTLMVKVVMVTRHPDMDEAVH

SNTA1, Q13424 = target: T8, SNTA1, Q13424
T8 sequence (Q13424 82-180, limits assumed, looked up): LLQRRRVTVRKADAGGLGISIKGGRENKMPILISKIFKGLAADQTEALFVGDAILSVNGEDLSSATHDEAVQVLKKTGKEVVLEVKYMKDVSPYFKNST

SNTG1, Q9NSN8 = target: T9, SNTG1, Q9NSN8
T9 sequence (Q9NSN8 52-150, limits assumed, looked up): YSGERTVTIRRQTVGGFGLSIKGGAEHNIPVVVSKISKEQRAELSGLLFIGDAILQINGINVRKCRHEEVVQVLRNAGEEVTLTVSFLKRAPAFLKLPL

SYNJ2BP, P57105 = target: T10, SYNJ2BP, P57105
T10 sequence (P57105 8-110, limits assumed, looked up): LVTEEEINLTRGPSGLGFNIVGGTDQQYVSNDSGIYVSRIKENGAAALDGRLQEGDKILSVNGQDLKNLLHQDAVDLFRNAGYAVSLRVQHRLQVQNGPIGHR

TJP3_3, O95049 = target: T11, TJP3_3, O95049
T11 sequence (O95049 375-456, limits assumed, looked up): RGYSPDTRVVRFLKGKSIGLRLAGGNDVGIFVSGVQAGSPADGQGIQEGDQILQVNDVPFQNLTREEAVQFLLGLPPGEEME

TX1BP3, O14907 = target: T12, TX1BP3, O14907
T12 sequence (O14907 10-122, limits assumed, looked up): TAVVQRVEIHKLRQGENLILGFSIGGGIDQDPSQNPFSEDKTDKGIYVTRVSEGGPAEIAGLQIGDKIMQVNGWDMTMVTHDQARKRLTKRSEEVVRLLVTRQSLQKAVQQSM

Chain of FRMPD3, Q5JV73 (Q5JV73 12-100): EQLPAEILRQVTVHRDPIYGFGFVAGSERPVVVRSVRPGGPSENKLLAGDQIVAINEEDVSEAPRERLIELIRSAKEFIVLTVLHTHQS
Chain of GRASP, Q7Z6J2 (Q7Z6J2 96-193): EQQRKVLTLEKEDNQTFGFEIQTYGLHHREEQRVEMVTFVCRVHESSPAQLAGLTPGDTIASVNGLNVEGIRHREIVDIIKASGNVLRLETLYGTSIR
Chain of MAGI1_2, Q96QZ7 (Q96QZ7 456-580): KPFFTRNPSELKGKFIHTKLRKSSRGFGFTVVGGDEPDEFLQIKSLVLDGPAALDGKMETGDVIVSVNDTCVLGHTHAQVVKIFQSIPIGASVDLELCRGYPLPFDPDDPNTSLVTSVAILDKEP
Chain of NHERF4_1, Q86UT5-2 (Q86UT5 other isoform, or with tags, fused parts or gaps): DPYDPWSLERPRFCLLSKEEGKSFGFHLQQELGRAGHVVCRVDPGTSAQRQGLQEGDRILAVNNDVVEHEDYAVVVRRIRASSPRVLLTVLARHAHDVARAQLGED
Chain of PDZRN4_1, Q6ZMN7 (Q6ZMN7 213-318): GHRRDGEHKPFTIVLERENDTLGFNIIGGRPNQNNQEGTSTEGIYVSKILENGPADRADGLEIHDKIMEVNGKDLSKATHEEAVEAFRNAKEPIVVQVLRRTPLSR
Chain of IL16_4, Q14005 (Q14005 1229-1329): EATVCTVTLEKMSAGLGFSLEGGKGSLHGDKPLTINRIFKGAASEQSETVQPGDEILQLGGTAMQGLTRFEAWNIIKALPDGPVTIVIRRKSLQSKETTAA
Chain of GRID2IP_1, A4D2P6 (A4D2P6 1-87): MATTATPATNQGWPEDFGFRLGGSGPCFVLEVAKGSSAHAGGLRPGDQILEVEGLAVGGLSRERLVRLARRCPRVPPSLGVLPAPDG
Chain of CASK, O14936 (O14936 487-570): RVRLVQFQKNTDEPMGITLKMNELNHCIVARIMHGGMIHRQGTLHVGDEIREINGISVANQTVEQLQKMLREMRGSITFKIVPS
Chain of ARHGEF12, Q9NZN5-2 (Q9NZN5 other isoform, or with tags, fused parts or gaps): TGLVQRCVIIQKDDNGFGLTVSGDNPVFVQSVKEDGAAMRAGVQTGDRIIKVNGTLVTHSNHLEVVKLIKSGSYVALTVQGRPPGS
Chain of SCRIB_1, Q14160 (Q14160 718-814): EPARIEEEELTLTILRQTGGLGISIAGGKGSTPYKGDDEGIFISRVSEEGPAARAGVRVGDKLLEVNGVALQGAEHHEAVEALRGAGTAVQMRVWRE
Chain of MAST2, Q6P0Q8 (Q6P0Q8 1099-1202): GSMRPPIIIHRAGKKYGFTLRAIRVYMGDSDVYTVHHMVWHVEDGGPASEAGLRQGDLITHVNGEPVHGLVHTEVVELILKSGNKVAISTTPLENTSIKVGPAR
Chain of LIMK2, P53671 (P53671 143-248): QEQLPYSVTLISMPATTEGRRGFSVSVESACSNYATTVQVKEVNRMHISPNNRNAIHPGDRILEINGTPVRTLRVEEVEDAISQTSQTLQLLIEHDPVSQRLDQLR
Chain of DLG5_1, Q8TDM6 (Q8TDM6 617-713): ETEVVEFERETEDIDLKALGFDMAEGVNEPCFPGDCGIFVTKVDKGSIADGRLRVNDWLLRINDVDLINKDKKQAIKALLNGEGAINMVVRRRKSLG

## SVISRREWYV [NECTIN3, Q9NQS3]
APBA2_1, Q99767
  pKd: below the threshold
ARHGEF12, Q9NZN5-2
  pKd: 3.64
CASK, O14936
  pKd: 3.75
DLG3_1, Q92796
  pKd: below the threshold
DLG3_2, Q92796
  pKd: 3.66
DLG5_1, Q8TDM6
  pKd: below the threshold
FRMPD3, Q5JV73
  pKd: 4.06
GOPC, Q9HD26
  pKd: below the threshold
GRASP, Q7Z6J2
  pKd: below the threshold
GRID2IP_1, A4D2P6
  pKd: below the threshold
IL16_4, Q14005
  pKd: below the threshold
LIMK2, P53671
  pKd: below the threshold
MAGI1_2, Q96QZ7
  pKd: 4.78
MAST2, Q6P0Q8
  pKd: 4.61
MPDZ_10, O75970
  pKd: below the threshold
NHERF3_1, Q5T2W1
  pKd: 4.52
NHERF4_1, Q86UT5-2
  pKd: 3.49
PDZRN4_1, Q6ZMN7
  pKd: below the threshold
RHPN1, Q8TCX5
  pKd: below the threshold
SCRIB_1, Q14160
  pKd: below the threshold
SHANK1, Q9Y566
  pKd: below the threshold
SNTA1, Q13424
  pKd: 3.48
SNTG1, Q9NSN8
  pKd: 3.79
SYNJ2BP, P57105
  pKd: 3.55
TJP3_3, O95049
  pKd: 4.39
TX1BP3, O14907
  pKd: below the threshold

## RDFDYIADWC [PKN2, Q16513]
APBA2_1, Q99767
  pKd: below the threshold
ARHGEF12, Q9NZN5-2
  pKd: below the threshold
CASK, O14936
  pKd: 3.54
DLG3_1, Q92796
  pKd: below the threshold
DLG3_2, Q92796
  pKd: 4.16
DLG5_1, Q8TDM6
  pKd: below the threshold
FRMPD3, Q5JV73
  pKd: 3.48
GOPC, Q9HD26
  pKd: below the threshold
GRASP, Q7Z6J2
  pKd: 4.3
GRID2IP_1, A4D2P6
  pKd: below the threshold
IL16_4, Q14005
  pKd: below the threshold
LIMK2, P53671
  pKd: below the threshold
MAGI1_2, Q96QZ7
  pKd: below the threshold
MAST2, Q6P0Q8
  pKd: 3.64
MPDZ_10, O75970
  pKd: 3.87
NHERF3_1, Q5T2W1
  pKd: 4.27
NHERF4_1, Q86UT5-2
  pKd: 4.34
PDZRN4_1, Q6ZMN7
  pKd: below the threshold
RHPN1, Q8TCX5
  pKd: below the threshold
SCRIB_1, Q14160
  pKd: below the threshold
SHANK1, Q9Y566
  pKd: below the threshold
SNTA1, Q13424
  pKd: below the threshold
SNTG1, Q9NSN8
  pKd: below the threshold
SYNJ2BP, P57105
  pKd: 3.73
TJP3_3, O95049
  pKd: 4.57
TX1BP3, O14907
  pKd: below the threshold

## NRVDSKETEC [ADAM17, P78536]
APBA2_1, Q99767
  pKd: below the threshold
ARHGEF12, Q9NZN5-2
  pKd: 3.95
CASK, O14936
  pKd: below the threshold
DLG3_1, Q92796
  pKd: 3.77
DLG3_2, Q92796
  pKd: 4.67
DLG5_1, Q8TDM6
  pKd: below the threshold
FRMPD3, Q5JV73
  pKd: below the threshold
GOPC, Q9HD26
  pKd: below the threshold
GRASP, Q7Z6J2
  pKd: below the threshold
GRID2IP_1, A4D2P6
  pKd: below the threshold
IL16_4, Q14005
  pKd: 3.6
LIMK2, P53671
  pKd: 3.48
MAGI1_2, Q96QZ7
  pKd: below the threshold
MAST2, Q6P0Q8
  pKd: 4.86
MPDZ_10, O75970
  pKd: below the threshold
NHERF3_1, Q5T2W1
  pKd: 3.81
NHERF4_1, Q86UT5-2
  pKd: 3.68
PDZRN4_1, Q6ZMN7
  pKd: below the threshold
RHPN1, Q8TCX5
  pKd: below the threshold
SCRIB_1, Q14160
  pKd: 4.49
SHANK1, Q9Y566
  pKd: below the threshold
SNTA1, Q13424
  pKd: 4.7
SNTG1, Q9NSN8
  pKd: 3.63
SYNJ2BP, P57105
  pKd: 4.28
TJP3_3, O95049
  pKd: below the threshold
TX1BP3, O14907
  pKd: below the threshold

## VRPGVKESLV [SCN4A, P35499]
APBA2_1, Q99767
  pKd: below the threshold
ARHGEF12, Q9NZN5-2
  pKd: below the threshold
CASK, O14936
  pKd: below the threshold
DLG3_1, Q92796
  pKd: 4.5
DLG3_2, Q92796
  pKd: 5
DLG5_1, Q8TDM6
  pKd: below the threshold
FRMPD3, Q5JV73
  pKd: below the threshold
GOPC, Q9HD26
  pKd: below the threshold
GRASP, Q7Z6J2
  pKd: below the threshold
GRID2IP_1, A4D2P6
  pKd: below the threshold
IL16_4, Q14005
  pKd: below the threshold
LIMK2, P53671
  pKd: below the threshold
MAGI1_2, Q96QZ7
  pKd: 4.6
MAST2, Q6P0Q8
  pKd: 4.87
MPDZ_10, O75970
  pKd: below the threshold
NHERF3_1, Q5T2W1
  pKd: 4.6
NHERF4_1, Q86UT5-2
  pKd: 3.76
PDZRN4_1, Q6ZMN7
  pKd: 4.25
RHPN1, Q8TCX5
  pKd: 4.33
SCRIB_1, Q14160
  pKd: 4.48
SHANK1, Q9Y566
  pKd: below the threshold
SNTA1, Q13424
  pKd: 4.76
SNTG1, Q9NSN8
  pKd: 4.85
SYNJ2BP, P57105
  pKd: 5.09
TJP3_3, O95049
  pKd: below the threshold
TX1BP3, O14907
  pKd: 4.73

## LDKESFLTWL [YAP1, P46937]
APBA2_1, Q99767
  pKd: below the threshold
ARHGEF12, Q9NZN5-2
  pKd: 4.84
CASK, O14936
  pKd: below the threshold
DLG3_1, Q92796
  pKd: below the threshold
DLG3_2, Q92796
  pKd: below the threshold
DLG5_1, Q8TDM6
  pKd: below the threshold
FRMPD3, Q5JV73
  pKd: 4.4
GOPC, Q9HD26
  pKd: 3.87
GRASP, Q7Z6J2
  pKd: 5.31
GRID2IP_1, A4D2P6
  pKd: below the threshold
IL16_4, Q14005
  pKd: below the threshold
LIMK2, P53671
  pKd: below the threshold
MAGI1_2, Q96QZ7
  pKd: 3.49
MAST2, Q6P0Q8
  pKd: 5.6
MPDZ_10, O75970
  pKd: below the threshold
NHERF3_1, Q5T2W1
  pKd: 5.1
NHERF4_1, Q86UT5-2
  pKd: 4.15
PDZRN4_1, Q6ZMN7
  pKd: 4.1
RHPN1, Q8TCX5
  pKd: 4.7
SCRIB_1, Q14160
  pKd: 4.47
SHANK1, Q9Y566
  pKd: 5.4
SNTA1, Q13424
  pKd: below the threshold
SNTG1, Q9NSN8
  pKd: below the threshold
SYNJ2BP, P57105
  pKd: 4.47
TJP3_3, O95049
  pKd: 4.18
TX1BP3, O14907
  pKd: 4.26

## AEDEEIQTKM [UNC93A, Q86WB7]
APBA2_1, Q99767
  pKd: below the threshold
ARHGEF12, Q9NZN5-2
  pKd: below the threshold
CASK, O14936
  pKd: below the threshold
DLG3_1, Q92796
  pKd: below the threshold
DLG3_2, Q92796
  pKd: below the threshold
DLG5_1, Q8TDM6
  pKd: below the threshold
FRMPD3, Q5JV73
  pKd: below the threshold
GOPC, Q9HD26
  pKd: below the threshold
GRASP, Q7Z6J2
  pKd: below the threshold
GRID2IP_1, A4D2P6
  pKd: below the threshold
IL16_4, Q14005
  pKd: 3.52
LIMK2, P53671
  pKd: below the threshold
MAGI1_2, Q96QZ7
  pKd: below the threshold
MAST2, Q6P0Q8
  pKd: 5.38
MPDZ_10, O75970
  pKd: below the threshold
NHERF3_1, Q5T2W1
  pKd: 5.39
NHERF4_1, Q86UT5-2
  pKd: below the threshold
PDZRN4_1, Q6ZMN7
  pKd: below the threshold
RHPN1, Q8TCX5
  pKd: 3.67
SCRIB_1, Q14160
  pKd: below the threshold
SHANK1, Q9Y566
  pKd: 5.21
SNTA1, Q13424
  pKd: below the threshold
SNTG1, Q9NSN8
  pKd: below the threshold
SYNJ2BP, P57105
  pKd: below the threshold
TJP3_3, O95049
  pKd: below the threshold
TX1BP3, O14907
  pKd: below the threshold
